This data set in a line: protein stability index of a GFP-peptide fusion (GPS, HEK-293T) (PSI 1-6); higher = more stable. As to conditions: c terminus: a fixed tail appended.

± gives the standard deviation.
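Also: 24-mer peptide tiles fused after GFP, lentivirally expressed, FACS-sorted into six equal bins by GFP/DsRed ratio, decoded by Illumina sequencing, PSI is the read-weighted mean bin number.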

As for FTPPTSLTRAGMSYYNSPGLHVQH [CCDC6], the protein stability index by setting is: (treatment: DMSO) 2.49 ± 0.52; (treatment: MLN4924 1 uM, 8 h) 2.84 ± 0.34.

For the sequence FVLQAIGIPGWGFSGWISALVVPK [SCAMP3], the protein stability index by setting is: (treatment: DMSO) 3.08 ± 0.53; (treatment: MLN4924 1 uM, 8 h) 2.88 ± 0.37.

With FWNQGLTWKVLFCSMSATFTLNFF [CLCN6], the protein stability index reads like this: (treatment: DMSO) 3.31 ± 0.5; (treatment: MLN4924 1 uM, 8 h) 3.17 ± 0.21.

Sequence FWRIDEDYPVQVAPLSNGLCCAFS [WSB1] returned a protein stability index (treatment: DMSO) of 2.06 ± 0.43 and a protein stability index (treatment: MLN4924 1 uM, 8 h) of 2.41 ± 0.39.

As to FYGHSHHSHHGHPSHQSHSLPNRR [C10orf62], the protein stability index reads like this: (treatment: DMSO) 3.99 ± 0.29; (treatment: MLN4924 1 uM, 8 h) 4.21 ± 0.21.

Regarding FYLALYKQMSFLEKRGCPRTALEY [TCF25], the protein stability index was found to be 2.66 ± 0.4 (treatment: DMSO) and 2.01 ± 0.4 (treatment: MLN4924 1 uM, 8 h).

For GCNSVLIQFATPNDFCSFYNILKT [CARM1], the protein stability index reads like this: (treatment: DMSO) 3.23 ± 0.62; (treatment: MLN4924 1 uM, 8 h) 2.84 ± 0.61.

As to GDCDAREEKQRELARKGSLKNGSM [FAM219A], the protein stability index reads like this: (treatment: DMSO) 5.1 ± 0.26; (treatment: MLN4924 1 uM, 8 h) 5.35 ± 0.4.

GDHERAIDFSPYLEPLGAPQAPAP [CEBPB]: the protein stability index amounted to 4.56 ± 0.16 (treatment: DMSO) and 4.55 ± 0.24 (treatment: MLN4924 1 uM, 8 h).

Turning to GDPEEIRMLIHKTEDVNTLDSEKR [ANKRD44], the protein stability index by setting is: (treatment: DMSO) 5.51 ± 0.16; (treatment: MLN4924 1 uM, 8 h) 5.33 ± 0.33.

As to GEINVEMDAAPGVDLSRILNEMRD [KRT17], the protein stability index runs as follows: (treatment: DMSO) 4.03 ± 0.22; (treatment: MLN4924 1 uM, 8 h) 3.99 ± 0.14.

On to GEYIYTGNAKGKILVLKTDSQDLV [RBBP5], for which the protein stability index runs as follows: (treatment: DMSO) 2.25 ± 0.24; (treatment: MLN4924 1 uM, 8 h) 2.45 ± 0.57.

Consider GFAMYYFTYDPWIGKLLYLEDFFV [SAT1], for which the protein stability index worked out at 3.16 ± 0.17 (treatment: DMSO) and 3.03 ± 0.34 (treatment: MLN4924 1 uM, 8 h).

With GFLLRYAVIKSNHSYCRMFLQRGA [ASB7], the protein stability index reads like this: (treatment: DMSO) 2.6 ± 0.37; (treatment: MLN4924 1 uM, 8 h) 2.34 ± 0.38.

Take GGGPEATLSISDVRTLSEPPDKGE [ZBTB22]: the protein stability index is, setting by setting: (treatment: DMSO) 5.33 ± 0.29; (treatment: MLN4924 1 uM, 8 h) 5.44 ± 0.31.

For the sequence GGGSSRISSVLAGGSCRAPSTYGG [KRT16], the protein stability index reads like this: (treatment: DMSO) 3.04 ± 0.59; (treatment: MLN4924 1 uM, 8 h) 3.46 ± 0.18.

As for GGIVTDTPASNHLPGWEDIESKIP [SLC19A2], the protein stability index was found to be 4.77 ± 0.17 (treatment: DMSO) and 4.87 ± 0.12 (treatment: MLN4924 1 uM, 8 h).

As for GGNHFRGTSDYDDVLSCEYYSPIL [KLHL13], the protein stability index was 2.81 ± 0.096 (treatment: DMSO) and 2.77 ± 0.18 (treatment: MLN4924 1 uM, 8 h).

With GGNKKSDGVKESSESTNTTIEDED [CAMK2A], the protein stability index by setting is: (treatment: DMSO) 5.7 ± 0.087; (treatment: MLN4924 1 uM, 8 h) 5.53 ± 0.26.

Turning to GGRKGTAIELQGHNDRVQALSYAQ [WDFY2], the protein stability index by setting is: (treatment: DMSO) 4.28 ± 0.21; (treatment: MLN4924 1 uM, 8 h) 4.38 ± 0.19.

On to GGWFCEGSFNGSEKETMQFLNDRL [KRT36], for which the protein stability index runs as follows: (treatment: DMSO) 3.27 ± 0.23; (treatment: MLN4924 1 uM, 8 h) 3.17 ± 0.41.

GGYLTELEDGFYLTAFICFLVFIL [MFSD9]: the protein stability index was found to be 1.98 ± 0.22 (treatment: DMSO) and 2.14 ± 0.34 (treatment: MLN4924 1 uM, 8 h).

For GHGIVGTIVKARDKLYHPECFMCS [PDLIM4], the protein stability index reads like this: (treatment: DMSO) 2.45 ± 0.069; (treatment: MLN4924 1 uM, 8 h) 2.67 ± 0.21.

With GILERYWLSSRAAAIKVNDSVPFH [MYORG], the protein stability index reads like this: (treatment: DMSO) 2.02 ± 0.42; (treatment: MLN4924 1 uM, 8 h) 1.78 ± 0.28.

Turning to GILTLAMIAFFFIIIYLGPMVLMI [CDS2], the protein stability index was 2.7 ± 0.57 (treatment: DMSO) and 2.48 ± 0.35 (treatment: MLN4924 1 uM, 8 h).

As to GKEVVKQLEEGLKDTDLARVRRFQ [M1AP], the protein stability index (treatment: DMSO) was 4.58 ± 0.35 and the protein stability index (treatment: MLN4924 1 uM, 8 h) was determined as 4.62 ± 0.2.

Take GKIRRGAYALPAGLSAPARCLVRC [TRIB3]: the protein stability index runs as follows: (treatment: DMSO) 2.47 ± 0.23; (treatment: MLN4924 1 uM, 8 h) 2.7 ± 0.33.

Turning to GLPFILRPTSCWQLDWDELETNQQ [M1AP], the protein stability index is, setting by setting: (treatment: DMSO) 2.62 ± 0.056; (treatment: MLN4924 1 uM, 8 h) 2.67 ± 0.24.

As to GLQNCVYPWDENHCKEKRKTSLLD [NETO1], the protein stability index reads like this: (treatment: DMSO) 3.24 ± 0.25; (treatment: MLN4924 1 uM, 8 h) 3.52 ± 0.28.

As to GMKIDLIDGKGRGVIATKQFSRGD [KMT5A], the protein stability index reads like this: (treatment: DMSO) 3.49 ± 0.15; (treatment: MLN4924 1 uM, 8 h) 4 ± 0.63.

For the sequence GMLKEGVRLDRVRGGRQKYKRRID [ESRRG], the protein stability index stood at 4.19 ± 0.14 (treatment: DMSO) and 4.15 ± 0.33 (treatment: MLN4924 1 uM, 8 h).

On to GPAHGPAQEEPWEKKESLGAAQEA [ZNF232], for which the protein stability index was 5.6 ± 0.22 (treatment: DMSO) and 5.49 ± 0.16 (treatment: MLN4924 1 uM, 8 h).

As for GPALWLRSTCVYVCALSALPAGPL [PLEKHN1], the protein stability index worked out at 2.98 ± 0.63 (treatment: DMSO) and 3.27 ± 0.74 (treatment: MLN4924 1 uM, 8 h).

Take GPPRAPGRSGWPAGGAPGSPIPSP [HES6]: the protein stability index is, setting by setting: (treatment: DMSO) 4.32 ± 0.18; (treatment: MLN4924 1 uM, 8 h) 4.26 ± 0.2.

Regarding GPYDPNSVRISFAKGWGPCYSRQF [SMAD6], the protein stability index is 2.19 ± 0.17 (treatment: DMSO) and 2.25 ± 0.18 (treatment: MLN4924 1 uM, 8 h).

On to GQPFNSDDRNTACHHGLVADSLQA [DLC1], for which the protein stability index by setting is: (treatment: DMSO) 4.49 ± 0.2; (treatment: MLN4924 1 uM, 8 h) 4.63 ± 0.1.
